Measurements as given in PMC5419587 (Virology, 2017).

Biological target: T1, SAMD9 1-385, purified (human, UniProt Q5K651 1-385)
T1 sequence (looked up): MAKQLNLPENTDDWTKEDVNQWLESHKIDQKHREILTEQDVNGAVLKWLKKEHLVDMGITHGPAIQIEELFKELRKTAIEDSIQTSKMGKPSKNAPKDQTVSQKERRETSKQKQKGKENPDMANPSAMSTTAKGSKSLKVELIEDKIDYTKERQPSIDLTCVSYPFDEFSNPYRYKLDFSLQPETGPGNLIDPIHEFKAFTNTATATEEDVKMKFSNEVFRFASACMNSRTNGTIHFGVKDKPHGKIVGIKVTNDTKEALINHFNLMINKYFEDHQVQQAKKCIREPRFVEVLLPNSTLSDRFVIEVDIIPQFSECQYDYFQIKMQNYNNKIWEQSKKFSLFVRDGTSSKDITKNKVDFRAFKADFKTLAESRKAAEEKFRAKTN
Assay: SPR

B1: MYXV M062 protein, purified (natural protein)
chain: MGVQHKLDIFLVSEGIAIKEANLLKGDSYGCTIKIKLDKEKTFKFVIVLEPEWIDEIKPIYMKVNDESVELELDYKDAIKRIYSAEVVLCSDSVINLFSDVDVSYTCEYPTIKVNTIKKYYSVQNRGMTYVHIESPINTKDKCWFVEKNGWYEDRTHS
Kd: 10 ± 5 µM
